According to patent US20060134103A1, “Compounds and molecular complexes comprising multiple binding regions directed to transcytotic ligands” (published 2006):

T1: GST-Human-stalk fusion protein (Schistosoma japonica; human, UniProt P01833)
T1 chain: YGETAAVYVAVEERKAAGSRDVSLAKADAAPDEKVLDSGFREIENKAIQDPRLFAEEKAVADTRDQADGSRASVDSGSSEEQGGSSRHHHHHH

B1: sFv5AF-Cys purified dimer (scFv)
scFv: DYKAKQVQLVQSGGGVVQPGRSLRLSCAASGFTFSSYAMHWVRQAPGKGLEWVSAISGSGGSTYYADSVKGRFTISRDNAKNSLYLQMNSLRAEDTAVYYCARDTRGYFDLWGRGTLVTVSSGGGGSGGGGSGGGGSSELTQDPAMSVALGQTVRITCQGDSLRKYHASWYQQRPRQAPRLVVYGKNERPSGIPERFSGSTSGDTASLTISGLQAEDEADYYCHSRDSNADLVVFGGGTKVTVLGAAAEQKLISEEDLNGAAHHHHHH
B2: sFv5AF-Cys (starting material, mixture of monomer and dimer) (scFv)
scFv: B1 scFv
B3: sFv5AF-Cys purified monomer (scFv)
scFv: B1 scFv

Tests used:
[1] = biological target: T1, GST-Human-stalk fusion protein; test: SPR (BIAcore), D6-GST captured by immobilized anti-GST antibody, 1:1 Langmuir global fit
[2] = biological target: GST-Rat-stalk fusion protein (Schistosoma japonica; rat) (UniProt P15083); test: as above
[3] = biological target: pIgR expressed in transfected MDCK cells (Examples 6 and 7)

Binder	Ka [1]	Kd [1]	Ka [2]	Kd [2]	apical to basolateral (reverse) transcytosis after 16 hours [3]	basolateral to apical (forward) transcytosis after 16 hours [3]	koff [1]
B1	5.02e+08 M⁻¹	1.99 nM	5.01e+08 M⁻¹	2 nM	10%	< 10%	–
B2	6.71e+08 M⁻¹	1.49 nM	4.36e+08 M⁻¹	2.3 nM	–	–	0.00145 s⁻¹
B3	1.77e+08 M⁻¹	5.64 nM	1.77e+08 M⁻¹	5.63 nM	< 5%	–	0.00241 s⁻¹
